We go through 1 molecule from patent US6699842B1, “Dominant negative deletion mutants of C-jun and their use in the prevention and treatment of cancer” (The United States of America as represented by the …, priority 1994, dated 2004).

One assay has as its system AP-1. As to the kind of experiment: CAT assay with stromelysin promoter reporter P750TRCAT (AP-1 dependent) in JB6 P+ Cl 41 cells. In kind it is cell-based, mouse. Conditions: 10 ng/ml, eight hours. From the text:
The plasmid constructs used in the following examples were as follows: P750TRCAT is a CAT reporter construct containing 750 bp of the rat stromelysin promoter driving the heterogolous gene chloramphenicol acetyl-transferase (CAT). This construct contains an AP-1 binding sequence at position −70 (Matrisian, L. M. et al. (1991) Am. J. Medic. Sci., 302: 157-162, Kerr, L. D. et al. (1988) Science., 242: 1424-1427, McDonnell, S. E. et al. (1990) Mol. Cell. Biol. 105 4284-4293). The mTRE-CAT reporter is a site-directed mutant with 2 point mutations in the AP-1 site (Matrisian, L. M. et al. (1991) Am. J. Medic. Sci., 302: 157-162) and the mPEA3-CAT reporter is a site-directed mutant in which point mutations in each of the PEA3 sites at position −208 to −200 and −191 to −199 of the stromelysin promoter were introduced using a protocol provided with the site-directed mutagenesis kit of Amersham Corp. (Arlington Heights, Ill.) and an oligonucleotide having SEQ ID NO.:1 GCAAGAAGCATTTCTTGG.
In brief, JB6 Cl 41 (P^+) cells transfected for 4-5 hours using a standard calcium phosphate transfection procedure (Sambrook, J. et al. (1989) “Molecular Cloning, A Laboratory Manual” Cold Spring Harbor Laboratory Press, Cold Spring Harbor, N.Y.) with 10 μg of one of three CAT reporter plasmid DNAs, P750TRCAT, mTRE-CAT or mPEA3-CAT and 10 μg of sheared genomic DNA isolated from Cl 41 cells were then changed to medium containing 2% fetal calf serum and twenty-four to forty-two hours later, were treated with either 0.1% of DMSO, 10 ng/ml of TPA or 10 ng/ml EGF for eight hours prior to preparation of total cell extracts. CAT enzyme activity was assayed using a diffusion-based CAT assay according to the protocol provided by the manufacturers (New England Nuclear, Del.). The results are expressed as the rate of accumulation of [^14C]-acetylated product relative to solvent controls (DMSO).
In order to determine whether TPA-induced CAT activity in JB6 P^+ cells is capable of being abolished, TPA induced CAT activity was measured in the presence of the known AP-1 inhibitors retinoic acid (RA) and fluocinolone acetonide (FA). In brief, JB6 P^+ Cl 41 cells were transfected with 10 μg of P750TRCAT and 10 μg of sheared genomic DNA from Cl 41 cells as in Example 1. […] As before, the results are expressed as the rate of accumulation of ^14C-acetylated product relative to solvent controls. […]

For a further assay, the system named is c-Jun. As to the kind of experiment: immunoprecipitation and densitometry of c-Jun protein in stable JB6 transfectants. The class given is cell-based, mouse. Conditions: 10 ng/ml, fifteen hours, TAM67 or Neo-only transfectants. How it is done:
Three TAM67 clonal transfectants (M4, M3, M6) and one neo-only clonal transfectant (N1) were treated for fifteen hours with either 10 ng/ml TPA (T), 10 ng/ml EGF (E), or 0.1% DMSO (D) prior to metabolic labelling for two hours with 0.2 mCi/ml ^35S -methionine (Amersham, Rockford, Ill.) (Sun, Y. et al. (1993) Mol. Carcinogenesis, 8: 49-57). Cellular lysates were then collected and immunoprecipitations using polyclonal rabbit c-jun antibody (AB-1 antibody, Oncogene Science) were carried out overnite at 4° C. (Sun et al. (1993)). These immunoprecipitates were then analyzed by electrophoresis on 12.5% SDS polyacrylamide gels and these gels are shown in FIG. 4.

B1: epidermal growth factor (protein, UniProt P01133 23-1207, looked up)
Pro-epidermal growth factor: PQHWSCPEGTLAGNGNSTCVGPAPFLIFSHGNSIFRIDTEGTNYEQLVVDAGVSVIMDFHYNEKRIYWVDLERQLLQRVFLNGSRQERVCNIEKNVSGMAINWINEEVIWSNQQEGIITVTDMKGNNSHILLSALKYPANVAVDPVERFIFWSSEVAGSLYRADLDGVGVKALLETSEKITAVSLDVLDKRLFWIQYNREGSNSLICSCDYDGGSVHISKHPTQHNLFAMSLFGDRIFYSTWKMKTIWIANKHTGKDMVRINLHSSFVPLGELKVVHPLAQPKAEDDTWEPEQKLCKLRKGNCSSTVCGQDLQSHLCMCAEGYALSRDRKYCEDVNECAFWNHGCTLGCKNTPGSYYCTCPVGFVLLPDGKRCHQLVSCPRNVSECSHDCVLTSEGPLCFCPEGSVLERDGKTCSGCSSPDNGGCSQLCVPLSPVSWECDCFPGYDLQLDEKSCAASGPQPFLLFANSQDIRHMHFDGTDYGTLLSQQMGMVYALDHDPVENKIYFAHTALKWIERANMDGSQRERLIEEGVDVPEGLAVDWIGRRFYWTDRGKSLIGRSDLNGKRSKIITKENISQPRGIAVHPMAKRLFWTDTGINPRIESSSLQGLGRLVIASSDLIWPSGITIDFLTDKLYWCDAKQSVIEMANLDGSKRRRLTQNDVGHPFAVAVFEDYVWFSDWAMPSVMRVNKRTGKDRVRLQGSMLKPSSLVVVHPLAKPGADPCLYQNGGCEHICKKRLGTAWCSCREGFMKASDGKTCLALDGHQLLAGGEVDLKNQVTPLDILSKTRVSEDNITESQHMLVAEIMVSDQDDCAPVGCSMYARCISEGEDATCQCLKGFAGDGKLCSDIDECEMGVPVCPPASSKCINTEGGYVCRCSEGYQGDGIHCLDIDECQLGEHSCGENASCTNTEGGYTCMCAGRLSEPGLICPDSTPPPHLREDDHHYSVRNSDSECPLSHDGYCLHDGVCMYIEALDKYACNCVVGYIGERCQYRDLKWWELRHAGHGQQQKVIVVAVCVVVLVMLLLLSLWGAHYYRTQKLLSKNPKNPYEESSRDVRSRRPADTEDGMSSCPQPWFVVIKEHQDLKNGGQPVAGEDGQAADGSMQPTSWRQEPQLCGMGTEQGCWIPVSSDKGSCPQVMERSFHMPSYGTQTLEGGVEKPHSLLSANPLWQQRALDPPHQMELTQ
modifications: Pro-epidermal growth factor
notes: tumor promoter, peptide growth factor
On to B1, for which the “increase in AP-1 dependent CAT activity in neo-only transfectants” value with AP-1 (N1-N3 transfectants, P750TRCAT) is “three to four fold increases”. In addition, the “CAT activity relative to uninduced cells, P750TRCAT reporter” value in the assay with AP-1 (P750TRCAT-transfected JB6 P+ Cl 41 cells) is recorded as “about 2 fold”. For the same molecule, the “CAT activity relative to uninduced cells, mPEA3-CAT reporter” value with AP-1 (mPEA3-CAT-transfected JB6 P+ Cl 41 cells (PEA3 sites mutated)) is on record as “about 2 fold”. Moreover, the “inducibility of CAT activity, mTRE-CAT reporter” value in the assay with AP-1 (mTRE-CAT-transfected cells (AP-1 binding site mutated)) was “loss of inducibility”. Further, the “c-Jun protein levels (43 kDa band, densitometric analysis)” value with c-Jun is “no significant differences”.
